Article PMC4663627

Molecular target: T1, p19 (GST-p19) (Cymbidium ringspot virus (CymRSV)) (UniProt P17457)
T1 sequence: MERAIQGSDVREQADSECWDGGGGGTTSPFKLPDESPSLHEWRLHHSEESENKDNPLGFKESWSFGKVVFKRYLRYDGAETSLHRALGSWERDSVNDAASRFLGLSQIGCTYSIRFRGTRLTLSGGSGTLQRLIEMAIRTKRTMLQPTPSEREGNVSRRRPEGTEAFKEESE
Test: SiNW-FET conductance, Langmuir fit
Settings: phosphate solution (240 uM NaH2PO4, 760 uM Na2HPO4), pH 7.4, Debye length 6.1 nm, temperature not given

Sequence | Kd (5'-phosphate) [nM] | Kd [nM]
CGUACGCGGAAUACUUCGAUU / UCGAAGUAUUCCGCGUACGUU [ds-sRNA-0] | 16 | –
GCGACGCGGAAUACUUGCUUU / UCGAAGUAUUCCGCGUACGUU [ds-sRNA-3] | – | 1140
GCGACGCGGAAUACUUCGAUU / UCGAAGUAUUCCGCGUACGUU [ds-sRNA-2] | – | 227
